Experimental data published in the domain aggregation screens of Martell et al. (2025).

Assay: soluble fraction after stress (log2 fold change); higher = more stays soluble; pooled small domains, quantitative proteomics
Details: stress: pH 4
How it was run: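 High-throughput quantitative proteomics was run on pooled custom libraries of small protein domains following pH 4 stress. Fold changes are on a log2 scale; higher values mean more of a domain remained soluble. The fold change in soluble amount is taken as a measure of aggregation propensity.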

Sequence | soluble fraction (log2)
HMGNSRNDQDLQTQIIKILAEGPASSRTLIETLTIEDEAALLKTLKRLLMNKKISLTPSNLYKL | -0.66
HMGPAAGVVEKYNLAHLSTGEMIRKEIAEGSDFGKMAAGIINKGELLSDEFVVALIENSIEHHKNVDGFLF | -0.22
HMGPAVGAIRVEGNKRVEPETVRTYLTFNVGDPYDLAKVDESLKALFATGLFQDVRIRREGNTVVIVVVEN | -1.07
HMGPAYQTQRQEAFAALSEIAAKNPQLMQVAGDLVFRAADFPMADELADRLAKTLPPQLQDKKGQP | -0.313
HMGPEISEDAKVVFDRLKNHDEILLNNFKSEFDLSNKKWDKIIKELRGNDLISIIKSEDGNLFIKP | -0.293
HMGPELGENEKLIFDIIKKESKMELGILKAQVDLSNKKWDKALKGLATHGLTKVNKTDDGLFIELI | -0.942
HMGPIITKTYNLSYATARDVNDIIKSKKSARGDIVIDTRTNSLIVSDVQEKIDLIDEIVATL | -1.37
HMGPLSDRSVADWLLRLGLADTANNRLLLQVMHAAGLPLERTAVRAMRETAAGRPEGTDAREWLQAAAAAQ | -0.326
HMGPNSVPDLRGKSLRQAMKMVNDLELKAIFEGEGIVVGQVPAPGKPVPETKILKITLSLEPY | 0.0736
HMGPPAVGSKLQDARKAQQLSLDELSKRAGVSKSMLSEVERNQANPTVGVLWRLATALGISLTDLLG | -0.549
HMGPPLISLDDGLAKGFGVGVGDTLTINILGRRITATIASLREIDWQSLRFDFAVVLSPGVLEGA | 0.063
HMGPRKAGSEATRQKILDAAEILFAERGFHSVSVRDITTEAGVDVALINYHFGSKQLLFETVFMRR | -0.472
HMGPRPLPAEFTHPSLRALLALGTTRGGVTSADVKTALEAASVPAGRRAAVLRALDDNGIEVHTEP | 0.107
HMGPSEVTLDNFVGKNYTDVVNDTSYQFTFKKEEKSDQTHAAGIIIAQSPKKGIKVKSNSTVTLTVSTG | 0.216
HMGPVDFYQMFISELQHLAEKPVTVDALIESTQLHKSQLTEWLKRAVDDGVVKKLNRPARFQVKNK | 0.136
HMGPVRDLGLLESAAHRPTTALWGRDVYATIEKKAAALLDSLVRDRPLADGNKRLGWLAALV | 0.0116
HMGPYGAGSAAPAEDGSGPEGWTVKGNAKSMLYHTEGSPYYGRTNADVWFRDEESAEAAGFRRWDRK | 0.033
HMGQAELPYSEFLREVNNGQVKSVIIEGSEITGFYKTSGTSFNVIAPDDPKLVERLMAQGVEVRAQPA | 0.239
HMGQDLEAFLLKAVGQLDQGDGVTLDALLKVAVSNGGFVREVAEAKLDDMLDAGTLDEPRFGWFRVGAT | -1.68
HMGQDLSYYIKIVQNQQPVDPLTGEPKVLDYGEVIRQAQILQMLDTGDLDRDKAIGQLSMKDAL | -0.26
HMGQELRFVIQDHEAGIRLDHYLTQQVEGYSRSHLRKLMDQGLITVDGSYRKAGYRLNVGDVIHVVIPPTR | -0.0619
HMGQELTPVERTALDIAARDGKVSTRILAQEAGIGLRTASKTLAALAERGLLTWHGTSRRDPQQHYTS | 0.154
HMGQISDESVLKEMVVQLIADNPKEVASYLGGKETLLQWFMGQVARATKGKADPQAVKQLLLDEFEKLK | -0.504
HMGQKETIVDLLKTNGTMTQLALAEAIYGDKNHGPNIYSVLMGRVNSGAVLRTGSQPAYYSLSG | 0.22
HMGQKMLTIELQEKVNKMPDNLASYDLKLSADGMSLIYKYSLKSERTGITALLQELKNAGLVMRDLKTEQ | -0.302

Sequence | soluble fraction (log2)
HMGQLSDREALTVLAREALVELPRAAGDYRNGRTAALQSLVGRVMRKTAGRGNPALLQEIFRSLL | 0.00453
HMGQLVVHQIKGEASRLDKFLVVNIPKYSRSVWREMINNGSVQVNGRVVKPHLLVKEGDIITWSS | 0.0267
HMGQLVYPAGVYDVNKSYITDSNSAPYVLDKTDNNYYVLNTQMTWKGTEQDNKTPSQSYEESGGSVWLLFD | -0.59
HMGQPAVSSRDVAEQFGKEHRNVIQSIKNLIAENSALTFMFIEDTYTAGTGKKYPMYYMNRDGFTLLA | -0.15
HMGQPGNWTSYVFKNSDTEPAKPTSSGPIPSGWNDAPTGVGIWWMSKATIDASTGKAGSWSTPIRVTGED | 0.0155
HMGQSKNERMLELVELLNKASRSYYQDAQEIMSNYEYDRLYDELQNLEKELGITLSNSPTVN | -1.3
HMGQVSDETGLARVVDALLAAHPDEVAKYRAGKTSLLGWFMGQVMKETRGQANPDLARALVLERLE | -0.269
HMGQYSTTLDKIENSLFGFTYSNEAENTRINRIENKVYGKTSTSQTSTRIAKLKKDLSVDEMG | -0.00491
HMGREVVVPNLAGIEKEVALDLLKKNRLGGMITGTRFSSDFPAGQVIQQMPEAGSRVKVGKQVKLVLSEG | 0.334
HMGRGSEDEQMRGLAVILAEQKQIMQTLGVENEVVKPEQYINTLKRMAELNGFKDTDQFFSIPQ | -0.587
HMGRHSPLSIEQKEQLKTEIVALQQQRGGGRVTAVNIAELIQQKFNVVYNPNSLYKLLKQIGMSWV | -0.311
HMGRKEIIVPNLLGKYAIEAGTILKNAGLLEGQAREENSDTYPAGQIMDQFPKANTPANENDKVDYVVSI | -0.202
HMGRLEVDLVVPYDKYEAMNVIRAEGRILKEDHQGDGAHLKIQINETALWKLKRMLGEGYGQ | -0.255
HMGRLPMNIVRAIVEHLDRHASYSEINRATGASKGFISKVAAAVEAASLTPEKFLLLNDEDIQNRITPGR | -0.133
HMGRPTLEQLLDRAQAMGVPRERYAAYADRRWGRGWRVNPHGRGRAWDELDRYRNDPAGYLDKIEVELNQL | -0.0109
HMGRQVTVPNVTGMLVEEARAAISEAELWVDSPRAVQGEVTRQEPARGERLSPGQEVRIYTES | -0.568
HMGRRSKAMLSSALDAVPGLGEMRRKALISQFGSLKKLRGATPEEIAAVPGIGPKLAAAVHEAVSG | 0.131
HMGRSTQVPGVEKMTYSQAVQLLHDHGFRVDIRDSLYRDDIKPGHVIEQFPKAKSIVKPGRKIFLYINAV | 0.105
HMGRTGTVVVSPSLNVRTGPWGEIIGSLYNGNKVEIIGSSGDWYQISFGGKTAYVHSDYVVDGG | -0.779
HMGSDAFDISKLNLVGKTKESAESLLKENGFSVDTKEEASDTAAKGTVISYSPTKPKNGERVTLTVSSGK | 0.243
HMGSDQEAAMARQDRLSTLVDYVVERGSVHVDDIVADLGVSPATVRRDLDALAAQQLIIRTRGGATANHT | -0.552
HMGSGKGAAHTILGISADASDDEIKAAWRKLVQENHPDKLVSQGLPDEFVQAATDRLRLINTAYQSMLNRP | -0.328
HMGSGLAAAEKIRKAHPEIKIVVATSLIDTQVLARAKAVGADSLWYKDGDEGTLMQVVRRTMAGDHIFP | -0.366
HMGSIGAMLSSPELYGKLATNPATRGFLSQPDFIAMLTDVQKNPDKFGSYMSDPRMMQVLSVALG | -0.103
HMGSIRDIIVQYLSKFDDPQPAAKIVEYVQQYRDTTESSIRSSMGSGDQFVQFSGGLYGLKDKTYAAWYSI | -0.383

Sequence | soluble fraction (log2)
HMGSLKISNPVKDTLWIQGVDGLKSIEIYSSTGQLVKTILGNQGDVSSLPKGVYFLKINTPSESLTAKIIK | ≥ 0.43
HMGSLPPPKDGTTIYVVKPGDSLWRISGKFFGNPLFWPRLWEINPNIDNPNKIYPGDVISLKP | 0.219
HMGSLVKLQSAAELHQAGRSAEAVPILLEVLATNPRLVDGWEILANALEKLGRLDEALAALKKTVALSPPG | -1.23
HMGSNENTIREYFDSLIASASKREIMDANPTMSQRTVERILQKLQAEGYVEKIGAARSTRYRRA | -0.0919
HMGSQLYTLEVEADEKISLIENNPLLIQKIYLKDNNLFSYKIASSSKTEIASIEKELEKNPSIKRLETA | -0.502
HMGSQQIEEGMRRLVASGALRPGASVPSVRDLARDLQVNPATVVRAYQRLVDAGLLVVRRGEGTFVAE | -0.103
HMGSSLLSPKEREVLQLLAGNLSNKQIALAMGVSDETIKWHLRNLFGKLNAGGRKHLIDRARMLGLLAAA | -0.153
HMGSVHDAATDRIREMILGGQFEPGERLRQDDLATSLGVSTMPVREALRQLQAEGLVVFYPRKGAVVAR | -0.173
HMGTAEDYLLPRRAEILSIIRDHEFANFDLIRRRFLAVNERTLRYDLKKLSDLGLIKKLGKTRGVYYRAAK | ≥ 0.43
HMGTAVKAPMPGTILKVNVTAGQSVKAGDIMFILEAMKMENEIVAPSDGTVSQVVAAKGSSVATDDVLAYL | -0.0993
HMGTDGLKDIVLEILKEHPNQLAELIDGKQKVLGFLVGQVMKKTNGAANPKEVNEIIQGEIKK | -0.433
HMGTELSYSEFLNKVEAGEVTNVTIRGPEITFQTGNSSYTTYAPDDPKLIEHLTAKGVAIKAGP | -0.311
HMGTGELLVHVIGAVHSPGVVRLPTGARVVDAIDAAGGAREDAQTEQLNLARLVDDGEQVRVPVVGESVD | 0.00081
HMGTGIKQVNVVSVIGQDEETAKTTLTNLGLKVNVTYATSTSDNGKVTKQSIDAGKTVDEGTSVTITVNKV | -0.269
HMGTHSAEQVRAAIRAIVAAEDAANPLSDARITELLAMRGIAAARRTVMKYREQLGIPSSAKRRR | ≥ 0.43
HMGTHVVQEGEYLDLIIEKTIPGSPIRKDLLRKAFVKLNPSAFGGRGNPNYIFARKKLKVPSVEDLKAVIF | -0.36
HMGTIEEYSKYLINQYFDSLKKPMDAMTTSEKIEIVKSLDKKGIFNLKGSVGELAKRFNTSEKTIYRYLSS | 0.00746
HMGTKRWELPRRVQQMATQHGKSISTAAAEELVSRSGENTRMLDNDLVKLAQMVEAPQIELADVERWIVR | 0.335
HMGTLPSLAPSGEKTVRLPNLAGWSLRETMEILQKGGLQLLPIGSGISFKQSPPPGTTLNEGDAVTVWF | 0.103
HMGTNTTGWIKIADDWKYIDSNGEYTVNDWRQSADGGWYYLGYNGNMLKNQTTPDGYYVDAEGLWDGMSPA | -2.31
HMGTPEQVVVSSVLKETNEIVLKWPADGFMAKYKMDNLNLNFEPVHGQGVMGYFIGSRLIKLELV | -0.33
HMGTPSAEELAFSAQKGNAVMRIMEIREKYIENGGQISDEERNEIERLIAIYYPKASIFDYLPMMG | -1.42
HMGTSFEDIDRAVKSVRKPETDEAEKLHAGKTFKDIAETELFQKLTESFAGISDRVNEVIDLYTARAAE | 0.143
HMGTSSAEIAAELRAQIFAGELRPGEMLPSAREITGTWNVAIATASRVHALLRSEGLATPVPGVGTVVAT | -0.17
HMGTTAWISTKTANGSVNIRTGPGTGYGVIGWALNGDKLEVLSRGTSWHYVKLVKNGKIGYVSASYVSFTQ | -0.399
